From US6716624B2, “GSK3 polypeptides” (Chiron Corporation, priority 2000, dated 2004)

Columns and labels:
[1] = test system: prephosphorylated SGSG-linked CREB peptide; test: Kinase specific activity of truncated GSK3β polypeptides (P81 filter assay); type: biochemical; conditions: 5.9 μM CREB peptide, 25 μM ATP, 20 min at room temperature
Experimental: A reaction mixture was prepared containing 5.9 μM prephosphorylated SGSG-linked CREB peptide (Wang et al., Anal. Biochem., 220:397-402 (1994))μ in reaction buffer (5 mM Tris, pH 7.5, 5 mM DTT; 1 mM MgCl2, 0.01% BSA) containing the desired amount of truncated GSK3 polypeptide. ATP was added (specific activity 5.3 Ci/mmol) to 25 μM final concentration and the mixture was incubated for 20 min. at room temperature. The reaction was stopped by transferring 30 μl onto a P81 filter disc (Whatman). The disc was washed four times in 150 ml of 75 mM H3PO4 for 5 minute each. The filter was air dried and counted under 5 ml scintillation fluid. The specific activity was counted by determining the ratio of counts (in cpm) by the mass of GSK3 in the reaction (in μg).

[2] = Concentration of the protein stock (solubility of the construct); type: physicochemical; conditions: concentrated protein stock
Experimental: The GSK3 constructs of the invention are capable of crystallization. […] Potential to crystallize is measured using a variety of assays including specific activity, aggregation, microheterogeneity. (See, for example, Table 1). These parameters are indicative of the purity of the preparation and of the solubility of the construct. The specific activity is also a preferred assay for detecting binding of an inhibitor to the correct binding site of the GSK3 construct. Another suitable method is fluorescence polarization. Briefly, a putative inhibitor, with an attached fluorophore, tumbles freely in solution. Thus when the fluorophore is excited by polarized light, the emitted light which is produced after a finite delay now has random polarity and the emitted light is no longer polarized. In the presence of a GSK3 construct with an intact inhibitor binding site, the tumbling rate is slowed sufficiently to ensure that, even though the light emission is delayed with respect to the excitation, the fluorophore has only moved very slightly. Thus, the excited light maintains polarization. A measurement of fluorescence polarization therefore indicates whether or not the GSK3 construct is suitable for identifying and optimizing an inhibitor. […] GSK3 constructs may not retain kinase activity, but their inhibitor binding can still be assessed using fluorescence polarization assays. […]

[3] = Aggregation of the purified construct on storage; type: physicochemical
Experimental: The GSK3 constructs of the invention are capable of crystallization. […] Potential to crystallize is measured using a variety of assays including specific activity, aggregation, microheterogeneity. (See, for example, Table 1). These parameters are indicative of the purity of the preparation and of the solubility of the construct. The specific activity is also a preferred assay for detecting binding of an inhibitor to the correct binding site of the GSK3 construct. Another suitable method is fluorescence polarization. Briefly, a putative inhibitor, with an attached fluorophore, tumbles freely in solution. Thus when the fluorophore is excited by polarized light, the emitted light which is produced after a finite delay now has random polarity and the emitted light is no longer polarized. […] A measurement of fluorescence polarization therefore indicates whether or not the GSK3 construct is suitable for identifying and optimizing an inhibitor. […] GSK3 constructs may not retain kinase activity, but their inhibitor binding can still be assessed using fluorescence polarization assays.
A truncated GSK3 polypeptide of the invention can be selected on the basis of one or more parameters. […] The potential of a polypeptide to form crystals can be evaluated on the basis of specific activity, purity, homogeneity, mass spectrometry, aggregation, and dynamic light scattering. […]

Construct 557: Truncated human GSK3β, M1 to I384, with N-terminal Glu-tag and Gly linker (SEQ ID NO:2)
Mean Specific Activity ([1]; mean of N assays): 4.3 × 10^7 cpm/μg | specific activity ([1]; stated in the text): 4.3×10^7 cpm/μg | Concentration [2]: 12700 µg/mL | Aggregation at 4 Degrees ([3]; 4 degrees, > 2 weeks): none @ > 2 | Aggregation at RT ([3]; room temperature, time at which aggregation occurs): overnight
